Starred links: 1 amine or outer side, 2 acyl side, 3 side chain; linkers in the order of their positions; H or OH if unused. Positions of bridges follow the written chain, without caps; N, C: chain ends. Non-standard residues stand in square brackets, D forms with d. Primed or numbered codes have the meaning given here. B5(16) = 2-amino-2-(pent-4-en-1-yl)hept-6-enoic acid = 2,2-bis(4-pentenyl)glycine (stitching residue), C=CCCCC(CCCC=C)(N[*:1])C(=O)[*:2]; B5(5) = 2,2-bis(4-pentenyl)glycine, 2-amino-2-(pent-4-en-1-yl)hept-6-enoic acid (stitching residue), C=CCCCC(CCCC=C)(N[*:1])C(=O)[*:2]; B5(9) = 2-amino-2-(pent-4-en-1-yl)hept-6-enoic acid (2,2-bis(4-pentenyl)glycine), C=CCCCC(CCCC=C)(N[*:1])C(=O)[*:2]; B5(19) = 2-amino-2-(pent-4-en-1-yl)hept-6-enoic acid (bis(4-pentenyl)glycine), C=CCCCC(CCCC=C)(N[*:1])C(=O)[*:2]; EtGA = (S)-2-amino-3-((carboxymethyl)(ethyl)amino)propanoic acid, CCN(CC(=O)[*:3])C[C@H](N[*:1])C(=O)[*:2]; B5 = 2-amino-2-(pent-4-en-1-yl)hept-6-enoic acid, C=CCCCC(CCCC=C)(N[*:1])C(=O)[*:2]; d(βAsp) = O=C(O)[C@@H](CC(=O)[*:2])N[*:1]; βAsp = O=C(O)[C@H](CC(=O)[*:2])N[*:1]; Bta = N[C@@H](Cc1csc2ccccc12)C(=O)O; αAllylPro = C=CC[C@@]1(C(=O)O)CCCN1; S8 = C=CCCCCCC[C@](C)(N)C(=O)O
T1: full-length beta-Catenin (Uniprot ID P35222) (Homo sapiens (Human), UniProt P35222 1-781)
T1 construct: The assay protocol says 'full-length beta-Catenin (Uniprot ID P35222)'; also called bCat; B-Catenin
T1 sequence: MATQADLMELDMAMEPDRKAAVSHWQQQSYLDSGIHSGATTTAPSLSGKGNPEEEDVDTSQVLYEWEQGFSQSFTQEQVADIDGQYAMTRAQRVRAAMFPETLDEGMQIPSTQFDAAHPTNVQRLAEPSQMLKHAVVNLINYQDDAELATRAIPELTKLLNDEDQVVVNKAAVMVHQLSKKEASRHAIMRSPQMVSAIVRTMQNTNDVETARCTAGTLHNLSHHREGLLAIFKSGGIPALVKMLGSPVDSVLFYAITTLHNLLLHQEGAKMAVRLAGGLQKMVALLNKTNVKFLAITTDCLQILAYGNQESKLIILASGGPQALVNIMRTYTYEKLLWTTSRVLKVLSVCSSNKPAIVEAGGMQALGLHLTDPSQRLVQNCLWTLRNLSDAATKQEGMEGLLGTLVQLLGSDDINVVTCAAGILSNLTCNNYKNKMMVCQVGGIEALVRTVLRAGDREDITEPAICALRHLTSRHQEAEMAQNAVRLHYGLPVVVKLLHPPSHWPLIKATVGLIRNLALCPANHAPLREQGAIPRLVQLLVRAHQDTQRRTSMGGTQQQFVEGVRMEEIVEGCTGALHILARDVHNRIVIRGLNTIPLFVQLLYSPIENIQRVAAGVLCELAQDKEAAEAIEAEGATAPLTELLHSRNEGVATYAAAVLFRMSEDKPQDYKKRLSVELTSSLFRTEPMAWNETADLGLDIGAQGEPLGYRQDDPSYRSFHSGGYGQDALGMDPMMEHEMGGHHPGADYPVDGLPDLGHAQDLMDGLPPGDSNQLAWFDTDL

T2: full-length beta-Catenin (Uniprot ID P35222) (Homo sapiens (Human), UniProt P35222 1-781)
T2 construct: also called bCat; B-Catenin
T2 sequence: T1 sequence

B1: I-174 (peptide)
peptide: Ac-[αAllylPro]DI[B5(5)]DDAAFQ[S8]FWH-NH2
modifications: staple 1-4, 4-11
notes: also called Ac-PL3-Asp-Ile-B5-Asp-Asp-Ala-Ala-Phe-Gln-S8-Phe-Trp-His-NH2
B2: I-176 (peptide)
peptide: Ac-[αAllylPro]DI[B5(5)]DEAAFV[S8]FWH-NH2
modifications: staple 1-4, 4-11
notes: also called Ac-PL3-Asp-Ile-B5-Asp-Glu-Ala-Ala-Phe-Val-S8-Phe-Trp-His-NH2
B3: I-178 (peptide)
peptide: Ac-[αAllylPro]DA[B5(19)]DEAAFQ[S8]FWH-NH2
modifications: staple 1-4, 4-11
notes: also called Ac-PL3-Asp-Ala-B5-Asp-Glu-Ala-Ala-Phe-Gln-S8-Phe-Trp-His-NH2
B4: I-180 (peptide)
peptide: XDIXDEAAFQXFWQ
modifications: not fully specified; N-terminal acetyl (Ac); PL3 at 1, B5 at 4, S8 at 11 (staples PL3-B5 and B5-S8 by olefin metathesis); C-terminal amide (NH2)
notes: also called Ac-PL3-Asp-Ile-B5-Asp-Glu-Ala-Ala-Phe-Gln-S8-Phe-Trp-Gln-NH2
B5: I-173 (peptide)
peptide: Ac-[αAllylPro]DA[B5]D[EtGA]AAFV[S8]FWQ-NH2
modifications: staple 1-4, 4-11; not fully specified
notes: also called Ac-PL3-Asp-Ala-B5-Asp-EtGA-Ala-Ala-Phe-Val-S8-Phe-Trp-Gln-NH2
B6: I-661 (peptide)
peptide: XDIXDEASFQXFXQ
modifications: not fully specified; Ac-PL3-Asp-Ile-B5-Asp-Glu-Ala-Ser-Phe-Gln-S8-Phe-BztA-Gln-NH2; N-terminal acetyl, C-terminal amide; PL3(1), B5(4), S8(11) stapled by olefin metathesis (1-4 and 4-11); BztA at 13
notes: Stapled peptide
B7: I-658 (peptide)
peptide: XDIXDEALFQXFXQ
modifications: not fully specified; Ac-PL3-Asp-Ile-B5-Asp-Glu-Ala-Leu-Phe-Gln-S8-Phe-BztA-Gln-NH2; N-terminal acetyl, C-terminal amide; PL3(1), B5(4), S8(11) stapled by olefin metathesis (1-4 and 4-11); BztA at 13
notes: Stapled peptide
B8: I-659 (peptide)
peptide: XDIXDEALFQXFXQ
modifications: not fully specified; Ac-PL3-Asp-Ile-B5-Asp-Glu-Ala-Leu-Phe-Gln-S8-Phe-BztA-Gln-NH2; N-terminal acetyl, C-terminal amide; PL3(1), B5(4), S8(11) stapled by olefin metathesis (1-4 and 4-11); BztA at 13
notes: Stapled peptide

molecular target: T1, full-length beta-Catenin (Uniprot ID …); experiment: fluorescence polarization competition; full-length beta-catenin, competitor 5FAM-TCF4(10-53) probe
Outline: (§1)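 Incubate 60 minutes at 20° C. away from light, then read polarization in duplicate. Fit to 1:1 binding with hill slope.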

IC50 [µM]	Binder
1.76	B1
1.99	B2
1.63	B3
0.056	B4
3.12	B5

molecular target: T2, full-length beta-Catenin (Uniprot ID …); experiment: as above
Outline: as §1

IC50 [µM]	Binder
0.675	Ac-[αAllylPro][d(βAsp)]I[B5(9)]DEAAFQ[S8]F[Bta]Q-NH2 (staple 1-4, 4-11, Stapled peptide) [I-668]
0.072	Ac-[αAllylPro]DI[B5(16)]DESAFQ[S8]F[Bta]Q-NH2 (staple 1-4, 4-11, Stapled peptide) [I-652]
0.183	Ac-[αAllylPro]DI[B5(16)]DEWAFQ[S8]F[Bta]Q-NH2 (staple 1-4, 4-11, Stapled peptide) [I-655]
0.923	Ac-[αAllylPro]DI[B5(9)]DEAWFQ[S8]F[Bta]Q-NH2 (staple 1-4, 4-11, Stapled peptide) [I-665]
0.996	Ac-[αAllylPro]DI[B5(9)]DEAWFQ[S8]F[Bta]Q-NH2 (staple 1-4, 4-11, Stapled peptide) [I-664]
0.045	B6
0.043	Ac-[αAllylPro]DI[B5(19)]DEAQFQ[S8]F[Bta]Q-NH2 (staple 1-4, 4-11, Stapled peptide) [I-663]
0.544	Ac-[αAllylPro]DI[B5(19)]DEAFFQ[S8]F[Bta]Q-NH2 (staple 1-4, 4-11, Stapled peptide) [I-660]
0.546	B7
0.43	B8
5	Ac-[αAllylPro]DI[B5(9)][βAsp]EAAFQ[S8]F[Bta]Q-NH2 (staple 1-4, 4-11, Stapled peptide) [I-673]
0.451	Ac-[αAllylPro][d(βAsp)]I[B5(9)]DEAAFQ[S8]F[Bta]Q-NH2 (staple 1-4, 4-11, Stapled peptide) [I-669]
5	Ac-[αAllylPro]DI[B5(5)][d(βAsp)]EAAFQ[S8]F[Bta]Q-NH2 (staple 1-4, 4-11, Stapled peptide) [I-674]

Source: patent US20240116985A1 (published 2024)
